The target of the experiment is glutathione reductase (Type III, Sigma).

Where the note is “scale: % of control activity”, “Bovine serum albumin (Pharmacia, DNase free 10 mg/ml) (from UniProt P02769)” showed a remaining glutathione reductase activity after denaturation (percent of control) of 71.
Consider “WCOR410 protein, expressed from pET22b and purified with the His*Bind buffer kit”, for which the remaining glutathione reductase activity after denaturation (percent of control) (% of control activity (-20° C., 1 µg/ml)) was 42.
Same read-out and setting: the value for “Wcs120 protein (50 kDa protein), expressed in E. coli from pET11a and purified” was 40.

These data come from patent publication US5731419.
